According to US20110293610A1 (published 2011):

These binders were tested against T1, biotinylated B Lymphocyte Stimulator, soluble form (human, UniProt Q9Y275 134-285, biotinylated with NHS-biotin, molar ratio 20:1 biotin:protein) (assay: phage scFv, receptor binding inhibition on IM9 cells).
T1 construct: also called bio-B Lymphocyte Stimulator; free B Lymphocyte Stimulator
Experimental: Fifty-five μl of each appropriate phage supernatant was added to each well and the final volume in each well was 65 μl. Plates were then incubated at room temperature for 30 minutes.
Plates were washed three times in PBST and three times in PBS, tapped dry and 50 μl of streptavidin-Delfia (Wallac) was added to each well at 1:1000 dilution in the Manufacturer's assay buffer. The plates were then incubated at room temperature for 1 hour and washed six times in Delfia wash solution (Wallac). After tapping the plates dry, 100 μl per well of Delfia enhancement solution (Wallac) was added. The plates were gently tapped to encourage micelle formation, incubated at room temperature for 10 minutes, and fluorescence read on a Wallac 1420 workstation at […].

Binder	binding result
I028A06 (scFv) scFv: QVQLVESGGGLIQPGGSLRLSCAASGFSFGSYAMSWIRQAPGKGLEWVSTSTGRGGSTYYADSVKGRFTISRDNAKNSLYLQMNSLRAEDAAVYYCARGGDYDILTGLYYYGMDVWGKGTMVTVSSGGGGSGGGGSGGGGSSYVLTQPPSVSGTPGQRVTISCSGGRSNIGSNTVKWYQQLPGTAPKLLIYGNDQRPSGVPDRFSGSKSGTSASLAITGVQAEDEADYYCQSYDSSLRGSRVFGTGTKVTVLG	binds
I008B01 (scFv) scFv: QVQLVQSGAEVMKPGASVKVSCKASGYNFNNYAMQWVRQAPGQRLEWMGWIVPGNGKTKYSQKFQDRVTIARDTSASTVYMELSSLTSEDTAMYYCARATYDPLTGYSFDGFDIWGQGTTVTVSSGGGGSGGGGSGGGGSQSVLTQPASVSGSPGQSITISCTGTSSDVGGYNYVSWYQQHPGKAPKLMIYEGSKRPSGVSNRFSGSKSGNTASLTISGLQAEDEADYYCSSYTTRSTRVFGGGTKLTVLG	binds
I031F09 (scFv) scFv: QVQLVQSGAEVKKPGASVKVSCTVSGDSFSRHGISWVRQAPGQGLEWMGWISVYNGDTKYAQKVQGRVTMTTDTSTNTVYMELRRLRSDDTAVYYCARDEGRDLLTGYYWPNFFDSWGRGTLVTVSSGGGGSGGGGSGGGGSALSYVLTQPPSASGTPGQRVTISCSGSRPNIGGNTVNWYQQLPGAAPKLLIYSNSQRPSGVPDRFSGSKYGTSASLAISGLQSDDEADYYCAAWDDSLTGPVFGGGTKLTVLG	binds
I031G11 (scFv) scFv: QVQLVQSGAEVKKPGASVKVSCTVSGDSFSRHGISWVRQAPGQGLEWMGWISVYNGDTKYAQKVQGRVTMTTDTSTNTVYMELRRLRSDDTAVYYCARDEGRDLLTGYYWPNFFDSWGRGTLVTVSSGGGGSGGGGSGGGGSALSYVLTQPPSVSGTPGQKVTISCSGSRPNIGGNTVNWYQQLPGAAPKLLIYSNSQRPSGVPDRFSGSKYGTSASLAISGLQSDDEADYYCAAWDDSLTGPVFGGGTKLTVLG	binds
I008C03 (scFv) scFv: QMQLVRSGGGVVQPGRSLRLSCAASGFTFSSYGMHWVRQAPGKGLEWVSVTYSGGNTNYADSVRGRFTISRDNSKNTLYLQMNSLRAEDTAVYYCAREGSYDILTGYYVGVGRMDVWGKGTLVTVSSGGGGSGGGGSGGGGSSELTQDPAVSVALGQTVRITCQGDSLRSYYTNWFQQKPGQAPLLVVYAKNKRPSGIPDRFSGSSSGNTASLTITGAQAEDEADYYCNSRDSSGNHVVFGGGTKLTVLG	binds
I031C03 (scFv) scFv: QMQLVQSGAEVRKPGSSVKVSCKASGGSFSSHVFSWVRQAPGQGLEWVGGITPKFATPNYAQKFQHRVTITADELTRTVFMDLSGLRSEDTAVYYCARGYDSSAFRAFDIWGQGTLVTVSSGGGGSGGGGSGGGGSAQSVLTQPPSVSAAPGQKVTISCSGSSSNIGNNYVSWYQQFPGTAPKLLIYDNNNRPSGVPDRFSGSKSGTSATLGITGLQTGDEADYYCGTWDRSLSVVVFGGGTKVTVLG	binds
I018C02 (scFv) scFv: QVQLQQSGSELKKPGASVIVSCKVSGYSLTKMSMHWVRQSPGEGLEWVGGIDPETRQPVYAQKFQGRVTITKDTSASAAYMELSSLGSEDTALYYCARATYDPLTGYSFDGFDIWGQGTLVTVSSGGGGSGGGGSGGGGSQSVLTQPASVSGSPGQSITISCTGTSSDVGGYNYVSWYQQHPGKAPKLMIYEGSKRPSGVSNRFSGSKSGNTASLTISGLQAEDEADYYCSSYTTRSTRVFGGGTKLTVLG	binds
I016F04 (scFv) scFv: QVQLQQSGSELKKPGASVKVSCKVSGYSLTKMSMHWVRQSPGEGLEWVGGIDPETRQPVYAQKFQGRVTITKDTSASAAYMELSSLGSEDTALYYCARATYDPLTGYSFDGFDIWGQGTLVTVSSGGGGSGGGGSGGGGSQSVLTQPASVSGSPGQSITISCTGTSSDVGGYNYVSWYQQHPGKAPKLMIYEGSKRPSGVSNRFSGSKSGNTASLTISGLQAEDEADYYCSSYTTRSTRVFGGGTKLTVLG	binds
I017D10 (scFv) scFv: RVQLVQSGAEVKKPGASVKVSCKASGYTFTSDHISWVRQAPGQGLEWMGWISPHHGKTNYAQKLQGRVTMTTDTSTSTAYMELRSLRSDDTAVYYCARVQMDSEYYDLLTGINVGPYYFDYWGKGTLVTVSSGGGGSGGGGSGGGGSSELTQDPAVSVALGQTVRITCQGDSLRSYYASWYQQKPGQAPVLVIYGKNNRPSGIPDRFSGSSSGNTASLTITGAQAEDEADYYCNSRDSSGNHVVFGGGTKLTVLG	binds
I026E03 (scFv) scFv: EVQLVQSGGEVKRPGASVKVSCKASGYTFSRYGISWVRQAPGQGLEWMGWISAYNGKTSFAEKFQGRVTLTTDTSTTTVDMELRNLRSDDTAVYYCARTDYDILTGYPMGYFDPWGKGTLVTVSSGGGGSGGGGSGGGGSALSSELTQDPAVSVALGQTVKITCQGDSLRSFYAAWYQQKPGQAPILVISGKNNRPSGIPDRFSGSSSGNTASLTITGAQAEDEADYYCNSRDTSGNHYVFGAGTKLTVLG	binds
I022E02 (scFv) scFv: QVQLVQSGAEVKKPGASVMVSCKASGYTFSTYAVHWVRQAPGQGLEWMGRINAGNGYTKYSQKFQGRVTITKDTSASAAYMELSSLGSEDTALYYCARATYDPLTGYSFDGLDIWGKGTMVTVSSGGGGSGGGGSGGGGSQSVLTQPASVSGSPGQSITISCTGTSSDVGGYNYVSWYQQHPGKAPKLMIYEGSKRPSGVSNRFSGSKSGNTASLTISGLQAEDEADYYCSSYTTRSTRVFGGGTKLTVLG	binds
I031F02 (scFv) scFv: QVQLVQSGAEVRKPGSSVKVSCKASGGSFSSHVFSWVRQAPGQGLEWVGGITPKFATPNYAQKFQHRVTITADELTRTVFMDLSGLRSEDTAVYYCARGYDSSAFRAFDIWGQGTMVTVSSGGGGSGGGGSGGGGSAQSVLTQPPSVSGAPGQRVTISCTGSSSNIGAGYDVQWYQQLPGTAPKLLIHGNNNRPSGVPDRFSGSKSGTSASLAITGLQDEDEADYYCQSYDSSLSFSGYVFGTGTKVTVLG	binds
I007H08 (scFv) scFv: QVQLQQSGPGLVKPSQILSLTCAISGDSVASNGAAWNWIRQSPSRGLEWLGRTYYRSKWYVDYAVSVKSRITINPDTSKNQFSLQLNSVTPEDTAVYYCARDRYDILTGYYYYGMDVWGQGTMVTVSSGGGGSGGGGSGGGGSQSALTQPASVSGSRGQSITISCTGTTGDVGGYDYVSWYQQHPGKAPKLLIYGNSNRPSGVPDRFSASKSGNTASLTISGLQAEDEADYFCNTYAPPGIIMFGGGTKLTVLG	binds
I008A11 (scFv) scFv: QVQLQQSGPGLVKPSQILSLTCAISGDSVASNGAAWNWIRQSPSRGLEWLGRTYYRSKWYVDYAVSVKSRITINPDTSKNQFSLQLNSVTPEDTAVYYCARDRYDILTGYYYYGMDVWGQGTMVTVSSGGGGSGGGGSGGGGSQSALTQPASVSGSRGQSITISCTGTTGDVGGYDYVSWYQQHPGKAPKLLIYGNSNRPSGVPDRFSASKSGNTASLTISGLQAEDEADYFCSTYAPPGIIMFGGGTKLTVLG	binds
I061E07 (scFv) scFv: QVQLQQSGAEVKKTGASVKVSCKASGYIFADYYVHWVRQAAGQGLEWMGWINPNTGSTKYAQKFQDRVTMTRDTSIKTVYMELRRLRSDDTALYYCARATYDPLTGYSFDGFDIWGKGTMVTVSSGGGGSGGGGSGGGGSQSVLTQPPSASGTPGQRVTISCSGSSSNIGSNTVNWYQRLPGAAPQLLIYNNDQRPSGIPDRFSGSKSGTSGSLVISGLQSEDEADYYCASWDDSLNGRVFGGGTKLTVLG	binds
I061H01 (scFv, also called 1061H01) scFv: QVQLVQSGGGLVKPGGSLRLSCAASGFTFSNAWMSWVRQAPGKGLQWVGRIKSKTDGGTTDYAAPVKGRFTISRDDSKNTLYLQMNSLKTEDTAVYYCTTFNPTYDILTGYYIGGYFQHWGQGTMVTVSSGGGGSGGGGSGGGGSQSVLTQPASVSGSPGQSITISCTGTSSDVGGYNYVSWYQQHPGKAPKLMIYEGSKRPSGVSNRFSGSKSGNTASLTISGLQAEDEADYYCSSYTTRSTRVFGGGTQLTVLG	binds
I006D07 (scFv) scFv: EVQLVESGGGVVQPGGSLRLSCAASGFTVNSYAMHWVRQAPGKGLQWVAVIPYDGSKKYYADSVKGRFTVSRDNSKNTLYLQMNSLRAEDTAVYYCARSHYDILTGLNYWYFDLWGRGTLVTVSSGGGGSGGGGSGGGGSSELTQDPAVSVALGQTVRITCQGDSLRSYYASWYQQKPGQAPVLVIYGKNNRPSGIPDRFSGSSSGNTASLTITGAQAEDEADYYCNSRGSSGNHVVFGGGTKLTVLG	binds
I029D07 (scFv) scFv: QVQLQQSGAEVKKPGSSVKVSCKASGYTFTKYTMHWVRQAPGQGPEWMGWINGGSGDTKYSRKFQGRVTITKDTSASAAYMELSSLGSEDTALYYCARATYDPLTGYSFDGFDIWGQGTLVTVSSGGGGSGGGGSGGGGSQSVLTQPASVSGSPGQSITISCTGTSSDVGGYNYVSWYQQHPGKAPKLMIYDVSKRPSGVPDRFSGSKSGNTASLTISGLQAEDEGDYYCSSYAGPSRVFGGGTKVEIKR	binds
I006D08 (scFv) scFv: QVQLQQSGAEVKKPGSSVRVSCKASGGTFNNNAINWVRQAPGQGLEWMGGIIPMFGTAKYSQNFQGRVAITADESTSTASMELSSLRSEDTAVYYCARSRDLLLFPHYGMDVWGRGTMVTVSSGGGGSGGGGSGGGGSAFSSELTQDPAVSVALGQTVRVTCQGDSLRSYYASWYQQKPGQAPVLVIYGKNNRPSGIPDRFSGSSSGNTASLTITGAQAEDEADYYCNSRDSSGNHWVFGGGTELTVLG	binds
